The supplement of paper PMC10126150
± gives the standard deviation of the averaged measurements.

Test system: ATP
Experiment: switch fluorescence ratio, 500 uM ATP over buffer (Cy3 cluster intensity, sum of 5 cycles each) (fold (ratio)); higher = stronger signal-on switching upon ATP binding; sequences stand for … in TCGTCGGCAGCGTCAGATGTGTATAAGAGACAGTTTTTTTTTTTTTTTTTTTTTTTTT…TC
Conditions: aptamer strand: ATP DNA aptamer (quencher-CACCTGGGGGAGTATTGCGGAGGAAGG + anchor), 100 nM annealed; ATP concentration: 500 uM
Outline: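 Values give the fluorescence ratio for each switch-domain sequence, averaged from per-cluster ratios of summed target-cycle to summed buffer-cycle Cy3 intensity. The Cy3-labelled switching-strand clusters sat on a modified Illumina MiSeq flow-cell, were annealed to 100 nM quencher-labelled ATP aptamer, and were imaged in selection buffer, then after 15 min with 500 uM ATP at 22 °C. Five cycles ran with NaOH stripping and re-annealing between them, and clusters outside 100-1000 RFU were excluded.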
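Note: ATP exposure 15 min at 22 °C before imaging.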

GATCTGCACG and GGATTTAATA are within error of each other in switch fluorescence ratio: 0.9947 ± 0.0032 for the first, 1.02 ± 0.03 for the second.

TGGGCAGGGT and TTTTTTGGGA are within error of each other in switch fluorescence ratio: 1.02 ± 0.016 for the first, 1.01 ± 0.019 for the second.

TGGCAGGCAC and CACTCATTGG are the same in switch fluorescence ratio: 1.04 ± 0.012 for the first, 1.039 ± 0.008 for the second.

GGTTTAAAAA and TGATTTGGCT are within error of each other in switch fluorescence ratio: 0.969 ± 0.036 for the first, 1.02 ± 0.031 for the second.

ATAGTTATTT and GGCCGGGGGG are within error of each other in switch fluorescence ratio: 0.989 ± 0.014 for the first, 1.02 ± 0.058 for the second.

Compared with CCCGCGGTTA, TCTGTGTACG is lower in switch fluorescence ratio: 1.23 ± 0.032 for the first, 1.04 ± 0.047 for the second.

CCGGATGTTG and TGAAGCTGAT are within error of each other in switch fluorescence ratio: 0.987 ± 0.028 for the first, 1.02 ± 0.059 for the second.

GAGTCGAGAG and GAGCAGGGGG are within error of each other in switch fluorescence ratio: 0.99 ± 0.033 for the first, 1.01 ± 0.042 for the second.

GATGGGTAAA and CCTTTGGGCT are within error of each other in switch fluorescence ratio: 0.992 ± 0.029 for the first, 0.989 ± 0.025 for the second.

GGGGGGCGAC and GGGAAAAAAC are within error of each other in switch fluorescence ratio: 1.02 ± 0.019 for the first, 1.013 ± 0.0064 for the second.

Compared with GGGCCATGGT, TTTTTAAGCT is higher in switch fluorescence ratio: 0.9815 ± 0.0072 for the first, 1.02 ± 0.019 for the second.

TATCCCCCGG and TTTAAAGACT are within error of each other in switch fluorescence ratio: 1.95 ± 1.2 for the first, 1.01 ± 0.056 for the second.

GTTGGGGGTA and AAAAAACGTA are within error of each other in switch fluorescence ratio: 0.999 ± 0.028 for the first, 1.08 ± 0.1 for the second.

Compared with GGCCCTGAGC, TGCAAGAAGG is lower in switch fluorescence ratio: 0.9991 ± 0.0025 for the first, 0.9832 ± 0.0053 for the second.

GAATTTGTCC and GATTTTAGTT are within error of each other in switch fluorescence ratio: 0.988 ± 0.013 for the first, 0.9848 ± 0.0086 for the second.

AATGTCAATG and ATATTGCTGA are within error of each other in switch fluorescence ratio: 0.991 ± 0.021 for the first, 0.978 ± 0.078 for the second.

Going from AGCTGAAGAC to TCACAGCCG, the switch fluorescence ratio falls from 1.25 ± 0.097 to 1.046 ± 0.0085.

CGCCTAGTCG and GAGATGTTTA are within error of each other in switch fluorescence ratio: 1.02 ± 0.074 for the first, 0.987 ± 0.029 for the second.

Going from TTTGGCTCTG to GGGGGTTCAT, the switch fluorescence ratio falls from 1.03 ± 0.025 to 0.979 ± 0.013.

TTTGAGGGGA and AATGCCTCAG are the same in switch fluorescence ratio: 1 ± 0.011 for the first, 1 ± 0.024 for the second.

GATGGGGGAG and GAGTTCTTG are within error of each other in switch fluorescence ratio: 0.999 ± 0.018 for the first, 0.986 ± 0.023 for the second.

GTCGCAGGAG and CTTCGGAGTG are within error of each other in switch fluorescence ratio: 1.05 ± 0.011 for the first, 1.02 ± 0.023 for the second.

GGAATTTGTT and GGGTGAAATG are within error of each other in switch fluorescence ratio: 1 ± 0.021 for the first, 0.994 ± 0.023 for the second.

Compared with AGGAAATAGT, GGCTGGGATT is lower in switch fluorescence ratio: 1.05 ± 0.059 for the first, 0.964 ± 0.02 for the second.

Compared with ATGCTTCTTT, ATCAATCTCG is higher in switch fluorescence ratio: 0.9854 ± 0.0053 for the first, 1.017 ± 0.0093 for the second.

First: TCCAGGTGGG
Second: TTGTAATGAT
The switch fluorescence ratio of the first is higher: 2.39 ± 0.19 for the first, 0.988 ± 0.027 for the second.

GGGAGGGGGG and CACAATTGGG are within error of each other in switch fluorescence ratio: 0.994 ± 0.032 for the first, 1.01 ± 0.035 for the second.

Going from GCATTTCAGG to GGTTTGGATC, the switch fluorescence ratio rises from 0.98822 ± 0.00033 to 1.02 ± 0.018.

CCTGAGTTC and TTTGCACAGT are within error of each other in switch fluorescence ratio: 0.996 ± 0.031 for the first, 1.01 ± 0.021 for the second.

TATCACGGCG and TGGGTGATCG are within error of each other in switch fluorescence ratio: 0.998 ± 0.013 for the first, 1.03 ± 0.067 for the second.

CAAAAAAATG and GCATGTCGGA are within error of each other in switch fluorescence ratio: 0.999 ± 0.03 for the first, 1.01 ± 0.039 for the second.

AGTCGGGAGA and GGTTGGGGGA are within error of each other in switch fluorescence ratio: 1.01 ± 0.015 for the first, 1.02 ± 0.024 for the second.

GGGTGATCGT and GGGACCTAAG are within error of each other in switch fluorescence ratio: 0.997 ± 0.013 for the first, 1 ± 0.024 for the second.

TACAGTTGGC and TCTTGATCTG are within error of each other in switch fluorescence ratio: 1.03 ± 0.084 for the first, 1.016 ± 0.0021 for the second.

GTGTTAATGG and TCACAATGCG are within error of each other in switch fluorescence ratio: 0.998 ± 0.022 for the first, 1.06 ± 0.064 for the second.

AGGTTGAGGA and CCGGGGTCGC are within error of each other in switch fluorescence ratio: 0.964 ± 0.033 for the first, 1 ± 0.026 for the second.

AAAACCGAAA and TATTGGGTCG are within error of each other in switch fluorescence ratio: 1.11 ± 0.1 for the first, 0.99 ± 0.023 for the second.

GGGAGGTATA and TACGGGGGAT are within error of each other in switch fluorescence ratio: 0.969 ± 0.012 for the first, 1.02 ± 0.054 for the second.

First: TAAGTAATTC
Second: AATGGCATTT
The switch fluorescence ratio of the first is higher: 1.08 ± 0.064 for the first, 0.989 ± 0.025 for the second.

AACGTTATAA and TAGACAGGGG are within error of each other in switch fluorescence ratio: 1.05 ± 0.02 for the first, 1 ± 0.037 for the second.

First: GTGATATGGA
Second: AACTTAGTAT
The switch fluorescence ratio of the first is lower: 0.992 ± 0.014 for the first, 1.018 ± 0.01 for the second.

AGGGAAGGTT and AAAGTATCAG are within error of each other in switch fluorescence ratio: 0.982 ± 0.022 for the first, 1.002 ± 0.0081 for the second.

Compared with TCAATTTGGG, ATACTGAGGA is higher in switch fluorescence ratio: 0.971 ± 0.022 for the first, 1.05 ± 0.026 for the second.

TGCTTTTGGG and TTGATATGAG are within error of each other in switch fluorescence ratio: 0.976 ± 0.0021 for the first, 0.989 ± 0.048 for the second.

TTGGTGGTCC and TGACGAAGGG are within error of each other in switch fluorescence ratio: 0.999 ± 0.012 for the first, 0.987 ± 0.023 for the second.

ATGATGGGGA and CGTGGGAGGC are within error of each other in switch fluorescence ratio: 0.987 ± 0.021 for the first, 1.04 ± 0.077 for the second.

GGACCTGGTT and GTGTGTCAGT are within error of each other in switch fluorescence ratio: 0.986 ± 0.013 for the first, 0.964 ± 0.013 for the second.

GGATGTCTAG and TTCGAGGTTT are within error of each other in switch fluorescence ratio: 0.9885 ± 0.0037 for the first, 0.982 ± 0.059 for the second.

Compared with ACTACTGGCT, GGTTGGGGCT is lower in switch fluorescence ratio: 1.047 ± 0.0089 for the first, 0.987 ± 0.039 for the second.

AATAGGGCCT and TTGTTCGACT are the same in switch fluorescence ratio: 1.02 ± 0.023 for the first, 1.02 ± 0.016 for the second.
